Experimental data: the supplement of paper PMC7125110
± gives the standard error. For some assays here: Variants at the floor of the assay were thinned out.

B1: glmS ribozyme (parent)
chain: AUAAAAGCGCCAGAACUACAGAAAUGUAGUUGACGAGGAGGAGGUUUAUCGAAUUUUCGGCGGAUGCCUCCAAA

What was measured:
Settings in all cases: with glucosamine-6-phosphate
[1] = variants of: B1; test: kcat; higher = faster cleavage; RNA array
Method in brief: (§1)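 E. coli RNA polymerase transcribed barcoded ribozyme variants in situ on sequenced MiSeq chips, which were tracked via a hybridised Cy3 probe at 37 °C. Tiles were imaged over ~14 h after glucosamine-6-phosphate (40 μM to 10 mM) in HEPES/KCl/Mg(OAc)2 buffer was flowed in. Normalised per-tile medians were fit to one- or two-exponential decays for kobs, and kcat and KM came from weighted Michaelis–Menten fits.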

[2] = variants of: B1; test: KM; higher = weaker cofactor use; RNA array
Method in brief: as §1

[3] = variants of: B1; test: self-cleavage kobs at 640 uM GlcN6P; higher = faster cleavage; RNA array
Method in brief: as §1

[4] = variants of: B1; test: self-cleavage kobs at 2500 uM GlcN6P; higher = faster cleavage; RNA array
Method in brief: as §1

[5] = variants of: B1; test: self-cleavage kobs at 10000 uM GlcN6P; higher = faster cleavage; RNA array
Method in brief: as §1

[6] = variants of: B1; test: self-cleavage kobs at 40 uM GlcN6P; higher = faster cleavage; RNA array
Method in brief: as §1

[7] = variants of: B1; test: self-cleavage kobs at 160 uM GlcN6P; higher = faster cleavage; RNA array
Method in brief: as §1

Variant	kcat [1] [s⁻¹]	KM [2] [µM]	self-cleavage kobs at 640 uM GlcN6P [3] [s⁻¹]	self-cleavage kobs at 2500 uM GlcN6P [4] [s⁻¹]	self-cleavage kobs at 10000 uM GlcN6P [5] [s⁻¹]	self-cleavage kobs at 40 uM GlcN6P [6] [s⁻¹]	self-cleavage kobs at 160 uM GlcN6P [7] [s⁻¹]
A36G C70A	1.58e-05 ± 4.3e-06						
G13A A39U	0.000349 ± 1.8e-05	2910 ± 270	6.49e-05 ± 8.9e-06	0.000153 ± 2e-05	0.000277 ± 3.4e-05		
A14C A39G	0.0127 ± 0.0026	3770 ± 970	0.00155 ± 0.0003	0.0051 ± 0.00078	0.0095 ± 0.0016	0.000147 ± 1.6e-05	0.000352 ± 0.00017
U30A U55A C71U	0.00347 ± 0.0015		0.00113 ± 0.00035	0.00197 ± 0.00068	0.00566 ± 0.0018	0.000138 ± 3.7e-05	
A12C U69A	0.000833 ± 0.00013	4330 ± 1100	0.000117 ± 2.1e-05	0.00027 ± 4.6e-05	0.000614 ± 9.4e-05		
G40U G41C	9.58e-05 ± 2.6e-05			8.94e-05 ± 1.2e-05	7.67e-05 ± 1.2e-05		< 1e-05
A33U U69A	2.24e-05 ± 3e-06					< 1e-05	
C16G C58A	0.000242 ± 1.6e-05	3440 ± 410	3.73e-05 ± 9.2e-06	0.000104 ± 1.8e-05	0.000178 ± 3.1e-05		
A12G G59C	6.79e-05 ± 1.4e-05			7.69e-05 ± 2.4e-05	5.86e-05 ± 1.4e-05	< 1e-05	
U47C C71G	0.000277 ± 6.2e-05		0.000116 ± 1.9e-05	0.000253 ± 3.8e-05	0.000197 ± 5.1e-05		
U56C C58A	0.000232 ± 6.7e-05		3.8e-05 ± 1.6e-05	5.91e-05 ± 1.6e-05	0.000146 ± 1.9e-05		
A42C C50A	< 1e-05			< 1e-05	< 1e-05	< 1e-05	
C16A U56C	0.000253 ± 8.5e-06	1940 ± 160	6.38e-05 ± 1.8e-05	0.000144 ± 3.2e-05	0.000211 ± 3.4e-05	< 1e-05	
A36G C71G	1.32e-05 ± 3.6e-06		< 1e-05				
G9U C71U	< 1e-05		< 1e-05		< 1e-05	< 1e-05	< 1e-05
G37C C67U	2.86e-05 ± 3.3e-06			2.85e-05 ± 1e-05			
U45A A52C	6.93e-05 ± 3e-05			0.000121 ± 3.4e-05	5.55e-05 ± 1.5e-05		< 1e-05

Variant	kcat [1] [s⁻¹]	KM [2] [µM]	self-cleavage kobs at 640 uM GlcN6P [3] [s⁻¹]	self-cleavage kobs at 2500 uM GlcN6P [4] [s⁻¹]	self-cleavage kobs at 10000 uM GlcN6P [5] [s⁻¹]	self-cleavage kobs at 40 uM GlcN6P [6] [s⁻¹]	self-cleavage kobs at 160 uM GlcN6P [7] [s⁻¹]
G13A U65A	0.000116 ± 3.9e-05			2.1e-05 ± 9.1e-06	5.81e-05 ± 8.7e-06	< 1e-05	
A15U U49G C50G G63A	2.96e-05 ± 6.8e-06					< 1e-05	
A14G A64C	0.000278 ± 1.8e-05	906 ± 140	0.000118 ± 1.4e-05	0.000217 ± 3.3e-05	0.000247 ± 3e-05		
A52U C67G	0.000281 ± 3.9e-05	2620 ± 740	6.34e-05 ± 7.8e-06	0.000118 ± 1.4e-05	0.000235 ± 2e-05		
U30A U65A	0.000636 ± 0.00012	2480 ± 800	0.000114 ± 2.4e-05	0.000384 ± 8.4e-05	0.000495 ± 8.6e-05		5.83e-05 ± 2e-05
U55C U56G	0.0112 ± 0.0051		0.00134 ± 0.00022	0.00329 ± 0.00056	0.0103 ± 0.0016	0.000172 ± 3.6e-05	0.000456 ± 6.4e-05
U30G U56G	0.00526 ± 0.0018		0.00189 ± 0.00062	0.00266 ± 0.00073	0.00705 ± 0.0016	0.000182 ± 3.7e-05	
G29U G38A G59A C67A U69G	2.86e-05 ± 6.2e-06						
U45G C71G	0.000564 ± 5.3e-05	2510 ± 370	0.000112 ± 1.2e-05	0.000322 ± 5.2e-05	0.000432 ± 6.3e-05		3.29e-05 ± 1.3e-05
G32C U45A	0.000238 ± 2.8e-05	3690 ± 1000	2.9e-05 ± 1.3e-05	0.000113 ± 2.7e-05	0.000171 ± 2.3e-05		
A39C C67A	0.00061 ± 0.00015	1790 ± 670	0.000144 ± 1.2e-05	0.000714 ± 0.00014	0.000522 ± 5e-05	2.37e-05 ± 5.8e-06	5.89e-05 ± 7.1e-06
G40C C67A	0.000136 ± 2.4e-05		6.63e-05 ± 1.2e-05	0.000181 ± 2.9e-05	0.000119 ± 1.3e-05		
G59U C70A	1.64e-05 ± 5.5e-06						
C10G C70A	< 1e-05				< 1e-05		
G37C	5.32e-05 ± 1.7e-06	1380 ± 210	1.88e-05 ± 1.5e-06	3.22e-05 ± 1.5e-06	4.71e-05 ± 8.5e-07		
G37U	< 1e-05			< 1e-05	< 1e-05		
G40C C70U	0.000498 ± 0.00011	512 ± 240	0.0002 ± 3.4e-05	0.000428 ± 9.7e-05	0.000555 ± 6.8e-05	4.61e-05 ± 9e-06	0.000155 ± 3.2e-05
